Test results: patent publication US20230416330A1, “Optimized GIP Peptide Analogues” (Antag Therapeutics ApS, priority 2019, published 2023)
Starred links: 1 amine or outer side, 2 acyl side, 3 side chain; linkers in the order of their positions; H or OH if unused. Non-standard residues stand in square brackets, D forms with d. Groups on a side chain read outwards from the residue. No end group written: not given here. *: point of attachment. C20 diacid = O=C(O)CCCCCCCCCCCCCCCCCCC(=O)*; C18 diacid = O=C(O)CCCCCCCCCCCCCCCCC(=O)*; C16 diacid = O=C(O)CCCCCCCCCCCCCCC(=O)*; γGlu = O=C(O)[C@H](CCC(=O)[*:2])N[*:1]; Adipoyl = O=C(CCCCC(=O)[*:2])[*:1]; Glutaryl = O=C(CCCC(=O)[*:2])[*:1]; Palmitoyl = CCCCCCCCCCCCCCCC(=O)*; Suc = O=C(CCC(=O)[*:2])[*:1]; Nle = CCCC[C@H](N)C(=O)O; AEEA = NCCOCCOCC(=O)O; Aib = CC(C)(N)C(=O)O

Each binder was assayed against T1, human GIP receptor (human, UniProt P48546 22-466) (assay: cell-based or functional assay).
T1 sequence (looked up): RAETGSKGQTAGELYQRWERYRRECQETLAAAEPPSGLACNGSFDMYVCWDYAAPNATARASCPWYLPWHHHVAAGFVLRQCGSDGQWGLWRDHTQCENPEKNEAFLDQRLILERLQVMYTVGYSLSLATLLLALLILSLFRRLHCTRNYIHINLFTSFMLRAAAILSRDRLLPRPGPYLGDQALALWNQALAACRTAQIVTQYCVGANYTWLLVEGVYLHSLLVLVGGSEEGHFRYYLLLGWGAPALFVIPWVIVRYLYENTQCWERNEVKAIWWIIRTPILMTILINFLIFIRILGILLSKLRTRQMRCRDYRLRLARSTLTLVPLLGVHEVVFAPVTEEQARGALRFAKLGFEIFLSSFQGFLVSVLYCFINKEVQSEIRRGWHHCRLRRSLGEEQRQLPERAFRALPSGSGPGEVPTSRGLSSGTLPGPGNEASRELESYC

Binder	nM (Kb, Gaddum assay, cAMP) [nM]	pKb (Gaddum assay, cAMP)
EGTFISDYSIAMDKIK(C20 diacid)QQDFVEWLLAQKPSSGAPPPS-OH (N-terminus assumed; SMILES CC[C@H](C)[C@H](NC(=O)[C@H](CO)NC(=O)[C@H](Cc1ccc(O)cc1)NC(=O)[C@H](CC(=O)O)NC(=O)[C@H](CO)NC(=O)[C@@H](NC(=O)[C@H](Cc1ccccc1)NC(=O)[C@@H](NC(=O)CNC(=O)[C@@H](N)CCC(=O)O)[C@@H](C)O)[C@@H](C)CC)C(=O)N[C@@H](C)C(=O)N[C@@H](CCSC)C(=O)N[C@@H](CC(=O)O)C(=O)N[C@@H](CCCCN)C(=O)N[C@H](C(=O)N[C@@H](CCCCNC(=O)CCCCCCCCCCCCCCCCCCC(=O)O)C(=O)N[C@@H](CCC(N)=O)C(=O)N[C@@H](CCC(N)=O)C(=O)N[C@@H](CC(=O)O)C(=O)N[C@@H](Cc1ccccc1)C(=O)N[C@H](C(=O)N[C@@H](CCC(=O)O)C(=O)N[C@@H](Cc1c[nH]c2ccccc12)C(=O)N[C@@H](CC(C)C)C(=O)N[C@@H](CC(C)C)C(=O)N[C@@H](C)C(=O)N[C@@H](CCC(N)=O)C(=O)N[C@@H](CCCCN)C(=O)N1CCC[C@H]1C(=O)N[C@@H](CO)C(=O)N[C@@H](CO)C(=O)NCC(=O)N[C@@H](C)C(=O)N1CCC[C@H]1C(=O)N1CCC[C@H]1C(=O)N1CCC[C@H]1C(=O)N[C@@H](CO)C(=O)O)C(C)C)[C@@H](C)CC) [AT750]	4.1	8.4
EGTFISEYSI[Aib]LEKIK([AEEA-AEEA-γGlu-C18 diacid])QQDFVEWLLAQKPSSGAPPPS-OH (N-terminus assumed; SMILES CC[C@H](C)[C@H](NC(=O)[C@H](CCCCN)NC(=O)[C@H](CCC(=O)O)NC(=O)[C@H](CC(C)C)NC(=O)C(C)(C)NC(=O)[C@@H](NC(=O)[C@H](CO)NC(=O)[C@H](Cc1ccc(O)cc1)NC(=O)[C@H](CCC(=O)O)NC(=O)[C@H](CO)NC(=O)[C@@H](NC(=O)[C@H](Cc1ccccc1)NC(=O)[C@@H](NC(=O)CNC(=O)[C@@H](N)CCC(=O)O)[C@@H](C)O)[C@@H](C)CC)[C@@H](C)CC)C(=O)N[C@@H](CCCCNC(=O)COCCOCCNC(=O)COCCOCCNC(=O)CC[C@H](NC(=O)CCCCCCCCCCCCCCCCC(=O)O)C(=O)O)C(=O)N[C@@H](CCC(N)=O)C(=O)N[C@@H](CCC(N)=O)C(=O)N[C@@H](CC(=O)O)C(=O)N[C@@H](Cc1ccccc1)C(=O)N[C@H](C(=O)N[C@@H](CCC(=O)O)C(=O)N[C@@H](Cc1c[nH]c2ccccc12)C(=O)N[C@@H](CC(C)C)C(=O)N[C@@H](CC(C)C)C(=O)N[C@@H](C)C(=O)N[C@@H](CCC(N)=O)C(=O)N[C@@H](CCCCN)C(=O)N1CCC[C@H]1C(=O)N[C@@H](CO)C(=O)N[C@@H](CO)C(=O)NCC(=O)N[C@@H](C)C(=O)N1CCC[C@H]1C(=O)N1CCC[C@H]1C(=O)N1CCC[C@H]1C(=O)N[C@@H](CO)C(=O)O)C(C)C) [AT754]	2.2	8.7
Suc-GTFISEYSI[Aib]LEKIK([AEEA-AEEA-γGlu-C18 diacid])QQEFVEWLLAQKPSSGAPPPS-OH [AT752]	0.52	9.3
Adipoyl-GTFISEYSI[Aib]LEKIK([AEEA-AEEA-γGlu-C18 diacid])QQEFVEWLLAQKPSSGAPPPS-OH (SMILES CC[C@H](C)[C@H](NC(=O)[C@H](CCCCN)NC(=O)[C@H](CCC(=O)O)NC(=O)[C@H](CC(C)C)NC(=O)C(C)(C)NC(=O)[C@@H](NC(=O)[C@H](CO)NC(=O)[C@H](Cc1ccc(O)cc1)NC(=O)[C@H](CCC(=O)O)NC(=O)[C@H](CO)NC(=O)[C@@H](NC(=O)[C@H](Cc1ccccc1)NC(=O)[C@@H](NC(=O)CNC(=O)CCCCC(=O)O)[C@@H](C)O)[C@@H](C)CC)[C@@H](C)CC)C(=O)N[C@@H](CCCCNC(=O)COCCOCCNC(=O)COCCOCCNC(=O)CC[C@H](NC(=O)CCCCCCCCCCCCCCCCC(=O)O)C(=O)O)C(=O)N[C@@H](CCC(N)=O)C(=O)N[C@@H](CCC(N)=O)C(=O)N[C@@H](CCC(=O)O)C(=O)N[C@@H](Cc1ccccc1)C(=O)N[C@H](C(=O)N[C@@H](CCC(=O)O)C(=O)N[C@@H](Cc1c[nH]c2ccccc12)C(=O)N[C@@H](CC(C)C)C(=O)N[C@@H](CC(C)C)C(=O)N[C@@H](C)C(=O)N[C@@H](CCC(N)=O)C(=O)N[C@@H](CCCCN)C(=O)N1CCC[C@H]1C(=O)N[C@@H](CO)C(=O)N[C@@H](CO)C(=O)NCC(=O)N[C@@H](C)C(=O)N1CCC[C@H]1C(=O)N1CCC[C@H]1C(=O)N1CCC[C@H]1C(=O)N[C@@H](CO)C(=O)O)C(C)C) [AT753]	0.23	9.6
Glutaryl-GTFISEYSI[Aib][Nle]EKIK(C16 diacid)QQEFVEWLLAQKPSSGAPPPS-OH (SMILES CCCC[C@H](NC(=O)C(C)(C)NC(=O)[C@@H](NC(=O)[C@H](CO)NC(=O)[C@H](Cc1ccc(O)cc1)NC(=O)[C@H](CCC(=O)O)NC(=O)[C@H](CO)NC(=O)[C@@H](NC(=O)[C@H](Cc1ccccc1)NC(=O)[C@@H](NC(=O)CNC(=O)CCCC(=O)O)[C@@H](C)O)[C@@H](C)CC)[C@@H](C)CC)C(=O)N[C@@H](CCC(=O)O)C(=O)N[C@@H](CCCCN)C(=O)N[C@H](C(=O)N[C@@H](CCCCNC(=O)CCCCCCCCCCCCCCC(=O)O)C(=O)N[C@@H](CCC(N)=O)C(=O)N[C@@H](CCC(N)=O)C(=O)N[C@@H](CCC(=O)O)C(=O)N[C@@H](Cc1ccccc1)C(=O)N[C@H](C(=O)N[C@@H](CCC(=O)O)C(=O)N[C@@H](Cc1c[nH]c2ccccc12)C(=O)N[C@@H](CC(C)C)C(=O)N[C@@H](CC(C)C)C(=O)N[C@@H](C)C(=O)N[C@@H](CCC(N)=O)C(=O)N[C@@H](CCCCN)C(=O)N1CCC[C@H]1C(=O)N[C@@H](CO)C(=O)N[C@@H](CO)C(=O)NCC(=O)N[C@@H](C)C(=O)N1CCC[C@H]1C(=O)N1CCC[C@H]1C(=O)N1CCC[C@H]1C(=O)N[C@@H](CO)C(=O)O)C(C)C)[C@@H](C)CC) [AT755]	0.23	9.6
EGTFISDYSIAMDKIK(Palmitoyl)QQDFVEWLLAQKPSSGAPPPS-OH (N-terminus assumed; SMILES CCCCCCCCCCCCCCCC(=O)NCCCC[C@H](NC(=O)[C@@H](NC(=O)[C@H](CCCCN)NC(=O)[C@H](CC(=O)O)NC(=O)[C@H](CCSC)NC(=O)[C@H](C)NC(=O)[C@@H](NC(=O)[C@H](CO)NC(=O)[C@H](Cc1ccc(O)cc1)NC(=O)[C@H](CC(=O)O)NC(=O)[C@H](CO)NC(=O)[C@@H](NC(=O)[C@H](Cc1ccccc1)NC(=O)[C@@H](NC(=O)CNC(=O)[C@@H](N)CCC(=O)O)[C@@H](C)O)[C@@H](C)CC)[C@@H](C)CC)[C@@H](C)CC)C(=O)N[C@@H](CCC(N)=O)C(=O)N[C@@H](CCC(N)=O)C(=O)N[C@@H](CC(=O)O)C(=O)N[C@@H](Cc1ccccc1)C(=O)N[C@H](C(=O)N[C@@H](CCC(=O)O)C(=O)N[C@@H](Cc1c[nH]c2ccccc12)C(=O)N[C@@H](CC(C)C)C(=O)N[C@@H](CC(C)C)C(=O)N[C@@H](C)C(=O)N[C@@H](CCC(N)=O)C(=O)N[C@@H](CCCCN)C(=O)N1CCC[C@H]1C(=O)N[C@@H](CO)C(=O)N[C@@H](CO)C(=O)NCC(=O)N[C@@H](C)C(=O)N1CCC[C@H]1C(=O)N1CCC[C@H]1C(=O)N1CCC[C@H]1C(=O)N[C@@H](CO)C(=O)O)C(C)C) [AT751]	0.92	9
EGTFISDYSIAMDKIK(C16 diacid)QQDFVEWLLAQK-OH (N-terminus assumed; SMILES CC[C@H](C)[C@H](NC(=O)[C@H](CO)NC(=O)[C@H](Cc1ccc(O)cc1)NC(=O)[C@H](CC(=O)O)NC(=O)[C@H](CO)NC(=O)[C@@H](NC(=O)[C@H](Cc1ccccc1)NC(=O)[C@@H](NC(=O)CNC(=O)[C@@H](N)CCC(=O)O)[C@@H](C)O)[C@@H](C)CC)C(=O)N[C@@H](C)C(=O)N[C@@H](CCSC)C(=O)N[C@@H](CC(=O)O)C(=O)N[C@@H](CCCCN)C(=O)N[C@H](C(=O)N[C@@H](CCCCNC(=O)CCCCCCCCCCCCCCC(=O)O)C(=O)N[C@@H](CCC(N)=O)C(=O)N[C@@H](CCC(N)=O)C(=O)N[C@@H](CC(=O)O)C(=O)N[C@@H](Cc1ccccc1)C(=O)N[C@H](C(=O)N[C@@H](CCC(=O)O)C(=O)N[C@@H](Cc1c[nH]c2ccccc12)C(=O)N[C@@H](CC(C)C)C(=O)N[C@@H](CC(C)C)C(=O)N[C@@H](C)C(=O)N[C@@H](CCC(N)=O)C(=O)N[C@@H](CCCCN)C(=O)O)C(C)C)[C@@H](C)CC) [AT749]	2.2	8.7
